# Assay results: US20240209086A1 (PETMEDIX, published 2024)
# Positions count from the first letter of the chain named.
# B1: PMX158 (monospecific anti-canine CD3, canine IgG-B effector function deficient Fc) (antibody, V domains shown)
# VH: ELTLQESGPGLVKPSQTLSLTCVVSGGSVTRSYYWNWIRQRPGRGLEWMGYWTGTTNYNPAFQGRISITADTAKNQCSLQLSSMTTEDTAVYYCAREGGKLLGAFGHWGQGTLVTVSS
# VL: SYVLTQLPSKNVTLKQPAHITCGGDKIGSKSVHWYQQKLGQAPVLIIYYDSSRLTGIPERFSGANSGNTATLTISGALAEDEADYYCQVWDSSAKASVFGGGTHLTVL
# B2: PMX160 (monospecific anti-canine CD3, canine IgG-B effector function deficient Fc) (antibody)
# heavy: EVQMVESGGDLVKPGGSLRFSCVASGFTFSSYHMSWVRQAPGKGLQWVAYINSGGSRTSYADAVKGRFTISRDNAKNTLYLQMNSLRAEDTAVYYCASGRSPPPLGSFDYGLDYWGHGTSLFVSSASTTAPSVFPLAPSCGSTSGSTVALACLVSGYFPEPVTVSWNSGSLTSGVHTFPSVLQSSGLYSLSSMVTVPSSRWPSETFTCNVAHPASKTKVDKPVPKRENGRVPRPPDCPKCPAPESLGGPSVFIFPPKPKDTLLIARTPEVTCVVVDLGREDPEVQISWFVDGKQMQTAKTQPREEQFNGTYRVVSVLPIGHQDWLKGKQFTCKVNHIGLPSPIERTISKARGQAHQPSVYVLPPSREELSKNTVSLTCLIKDFFPPDIDVEWQSNGQQEPESKYRTTPPQLDEDGSYFLYSKLSVDKSRWQRGDTFICAVMHEALHNHYTQKSLSHSPGK
# VL: B1 VL with K26N, L54P, S97W, G101E, H104Q
# B3: PMX165 (monospecific anti-canine CD3, canine IgG-B effector function deficient Fc) (antibody)
# heavy: EVQLVESGGDLVKPGGSLRLSCVASGFNFSASHMSWVRQAPGKGLQWVAYITNAGGRISYADAVKGRFTISRDNAKNTLYLQMSSLRVEDTAVYYCATERPGRRMGLKDYGMDYWGHGTSLFVSSASTTAPSVFPLAPSCGSTSGSTVALACLVSGYFPEPVTVSWNSGSLTSGVHTFPSVLQSSGLYSLSSMVTVPSSRWPSETFTCNVAHPASKTKVDKPVPKRENGRVPRPPDCPKCPAPESLGGPSVFIFPPKPKDTLLIARTPEVTCVVVDLGREDPEVQISWFVDGKQMQTAKTQPREEQFNGTYRVVSVLPIGHQDWLKGKQFTCKVNHIGLPSPIERTISKARGQAHQPSVYVLPPSREELSKNTVSLTCLIKDFFPPDIDVEWQSNGQQEPESKYRTTPPQLDEDGSYFLYSKLSVDKSRWQRGDTFICAVMHEALHNHYTQKSLSHSPGK
# VL: B1 VL with K26N, L54P
# B4: PMX159 (monospecific anti-canine CD3, canine IgG-B effector function deficient Fc) (antibody, V domains shown)
# VH: ELTLQESGPGLVKPSQTLSLTCVVSGGSVTRSYYWNWIRQRPGRGLEWMGYWTGSTIYNPTFQGRISITADTAKSQFSLQLRSMTTEDTAMYFCAREGGKSLGAFAYWGQGTLVTVSS
# VL: B1 VL with S31N, L45M, L54P, S97A
# B5: PMX162 (monospecific anti-canine CD3, canine IgG-B effector function deficient Fc) (antibody)
# heavy: EMQLVESGGDLVKPGGSLRLSCVASGFTFSTYHMSWVRQAPGKGLQWVAYSNSGGTRTYYADAVKGRFTISRDNVKNTLYLQMNSLRAEDTAVYYCASEGSGGGRYGFKDYGMDYWGHGTSLFVSTASTTAPSVFPLAPSCGSTSGSTVALACLVSGYFPEPVTVSWNSGSLTSGVHTFPSVLQSSGLYSLSSMVTVPSSRWPSETFTCNVAHPASKTKVDKPVPKRENGRVPRPPDCPKCPAPESLGGPSVFIFPPKPKDTLLIARTPEVTCVVVDLGREDPEVQISWFVDGKQMQTAKTQPREEQFNGTYRVVSVLPIGHQDWLKGKQFTCKVNHIGLPSPIERTISKARGQAHQPSVYVLPPSREELSKNTVSLTCLIKDFFPPDIDVEWQSNGQQEPESKYRTTPPQLDEDGSYFLYSKLSVDKSRWQRGDTFICAVMHEALHNHYTQKSLSHSPGK
# VL: B1 VL with K26N, L54P, S97W, G101E, H104Q
# B6: PMX163 (monospecific anti-canine CD3, canine IgG-B effector function deficient Fc) (antibody, V domains shown)
# VH: ELALQESGPGLVRPSQTLSLTCVVSGGSVTRSYYWNWIRQRPGRGLEWMGYWTGTTIYNPAFQGRISITVDTAKNQFSLHLISMTTEDTAVYYCGREGGSSLGAIAYWGQGTRVTVSS
# VL: B1 VL with K26N, L54P, S97A
# B7: PMX178 (monospecific anti-canine CD3, canine IgG-B effector function deficient Fc) (antibody, V domains shown)
# VH: B6 VH
# VL: B1 VL with K26N, S29R, L54P, S97A
# B8: PMX173 (monospecific anti-canine CD3, canine IgG-B effector function deficient Fc) (antibody)
# heavy: B5 heavy with M2V, N52H, V75G
# VL: B1 VL with K26N, L54P, S97W, G101E, H104Q
# Molecular target: canine CD3 on canine T cells (canine PBMC) (canine, UniProt P27597 22-202)
# Sequence (P27597 22-202 limits assumed, chain 1 of 3): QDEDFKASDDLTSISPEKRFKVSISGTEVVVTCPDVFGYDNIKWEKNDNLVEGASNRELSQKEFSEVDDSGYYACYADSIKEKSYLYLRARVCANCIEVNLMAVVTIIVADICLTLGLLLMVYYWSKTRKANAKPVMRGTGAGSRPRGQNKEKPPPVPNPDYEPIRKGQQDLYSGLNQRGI
# Sequence (chain, as listed by the source limits assumed, chain 2 of 3): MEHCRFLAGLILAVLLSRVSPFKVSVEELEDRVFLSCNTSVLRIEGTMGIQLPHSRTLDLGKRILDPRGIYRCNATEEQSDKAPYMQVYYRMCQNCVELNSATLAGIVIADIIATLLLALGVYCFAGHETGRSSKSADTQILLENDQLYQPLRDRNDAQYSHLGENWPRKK
# Sequence (chain, as listed by the source limits assumed, chain 3 of 3): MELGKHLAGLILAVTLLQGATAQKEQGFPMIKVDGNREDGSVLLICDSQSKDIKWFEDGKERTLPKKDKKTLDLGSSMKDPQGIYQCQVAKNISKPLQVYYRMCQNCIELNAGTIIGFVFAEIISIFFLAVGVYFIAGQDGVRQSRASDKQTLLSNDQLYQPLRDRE
# Test: cell-based or functional assay
"CD25 Activation, Day 6, IS","CD25 Activation, Day 6, PB","CD25 Activation, Day 9, IS","CD25 Activation, Day 9, PB","IFNy Concentration pg/ml, Day 6, IS [pg/mL]","IFNy Concentration pg/ml, Day 9, IS [pg/mL]","IFNy Concentration pg/ml, Day 9, PB [pg/mL]","Ki67 Proliferation, Day 6, IS","Ki67 Proliferation, Day 6, PB","Ki67 Proliferation, Day 9, IS",Binder
13.1,9.65,5.45,12.3,48.2,88.3,2440,2.63,0.54,0.45,B1
10.6,9.42,7.14,5.98,36.5,114,1460,0.84,0.12,1.87,B2
12.1,13.4,10.4,23.6,74.6,108,1370,1.67,0.26,1.3,B3
11.3,11.5,9.13,13.1,137,262,3050,1.69,0.37,1.28,B4
16,8.64,8.75,10.4,61.1,89.2,330,1.73,0.36,0.51,B5
13.3,18.8,10.1,14.6,56.2,145,3770,4.91,0.3,0.71,B6
9.79,20.5,8.41,9.23,24.7,223,2110,0.84,1.13,1.83,B7
8.5,13.3,9.37,11.5,56.7,125,1110,1.01,0.57,1.38,B8

# Same assay, conditions: not given
row,"Ki67 Proliferation, Day 9, PB",Binder
1,0,B1
2,0.33,B2
3,0,B3
4,0,B4
5,0.43,B5
6,0.75,B6
7,0.16,B7
8,0.34,B8
